From article PMC9909445 (Nature nanotechnology, 2022)

How the values were obtained:
[1] = target: T1, murine neutrophil elastase (mNE) (mouse, UniProt Q3UP87 27-265); assay: SPR
T1 sequence (looked up): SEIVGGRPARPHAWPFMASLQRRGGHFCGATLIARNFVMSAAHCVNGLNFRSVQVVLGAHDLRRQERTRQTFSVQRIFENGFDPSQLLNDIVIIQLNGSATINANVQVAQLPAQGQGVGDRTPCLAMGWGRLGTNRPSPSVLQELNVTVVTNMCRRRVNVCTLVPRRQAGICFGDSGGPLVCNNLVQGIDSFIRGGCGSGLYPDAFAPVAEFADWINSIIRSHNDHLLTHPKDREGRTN

[2] = target: T2, human neutrophil elastase (hNE) (human, UniProt P08246 30-267); assay: MST
T2 sequence (looked up): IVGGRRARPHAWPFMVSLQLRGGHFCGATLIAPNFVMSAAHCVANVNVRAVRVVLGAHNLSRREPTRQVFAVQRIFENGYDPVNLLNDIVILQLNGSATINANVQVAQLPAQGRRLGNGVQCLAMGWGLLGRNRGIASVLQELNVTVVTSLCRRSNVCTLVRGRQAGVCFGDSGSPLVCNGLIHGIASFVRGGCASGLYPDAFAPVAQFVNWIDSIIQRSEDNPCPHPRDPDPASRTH

Binder CGEAIPMSIPPEVK [NE-binding peptide (NEBP)] has a Kd [1] of 0.0016 µM, a koff [1] of 8.31e-06 s⁻¹ and a kon [1] of 5200 M⁻¹ s⁻¹. The Kd [2] was 2.08 ± 1.35 µM.
